Test results: the DeepSol protein solubility set

Test: soluble on expression in E. coli; label from the status in PepcDB or PDB records

Soluble on expression in E. coli, not soluble:
MGSDKIHHHHHHMIRKIVEIDQEKCNGCGICVPACAEGAIRIENGKAVLAADNLCDGLGACLGECPLDAIRIIERDADEFDEAAVEAHLGQTSRESHHAAHQPAPVHGGCPGSRAMVLDRPATESVRDVPRQESRLRQWPVQLHLVPTSAPYFRNADLLIAADCVPFAYADFHREFLDGRAVVVGCPKLDDNRFYTEKLTELIRVNDLKSITVVRMEVPCCGGIVMAARQALAASSKDIPLREVTVGISGELKGA
MGSDKIHHHHHHMITESRQMLDKRNRPLRDLRISVTDRCNFRCTYCMPAELFGPDYPFLKKEELLSFEELERLATLFVTRFGVEKIRLTGGEPLMRKDMPELIKKLARIPGIRDIAMTTNGSLLPVYAKRLKEAGLKRVTISLDSLEDERFKKINGRGVSVSKVLEGIEAAKQAGLGVKINMVVQKGVNEKDILPMARYFKEKGHILRFIEFMDVGNTNQWEKKDVMTKAEIIDLINKHMPVEPIAPNYIGEVASRFRYLDGSGEIGVISSVSDAFCGSCNRARLSARGELFTCLFASSGFDLRAPVRQELSDDELSEMIGTVWKNRIDQYSVDRTLSKASGKKKVEMSYIGG
MGSDKIHHHHHHMITSVAVVGCGWFGLPLAKALLSQGLKVTGSKRSPQEAEALSADGITGFALDLETLESEDLSSQTREAITQGLACDAIVINIPPGLRRGDNGYLDRLKRLKALMGTHEYQRIIFISTSGVYPAGGDSSGSGCVESDAKVHSPASETLLAAEALFSGANSADGVSNNHSDGSESNNSCVVVRFAGLIGPKRHPGRFLAGREDVPGGNLAVNMVHLDDCIGAVTLLLKAEGALSPAYNLCAPLHPTKAEFYQKAATQQGLTPPSFIEGDLAEDKRVDGGLITRELNYQYKFTDPLAMLTHC
MGSDKIHHHHHHMITTWKHHETIEKAKRNAEQKIVSNVEHVEHIALVNQKRVLDAFKRKQVSEHHFTPSTGYGYDDLGRETLEAVYADVFGAETALVRPQIISGTHAIATVLFGLLRPGDELLYITGKPYDTLEEVIGIRGEEGGGSLKDFGITYHAVPLTAEQKVDKAAVKAAMNERTKVIGIQRSKGYADRPSFSINEIEQMVQFVKGINPNVIVFVDNCYGEFVEAKEPCHVGVDVIAGSLIKNPGGGIVKTGGYVAGKAPYVKQASYRLAAPGIGTEGGATLYSLLEMFQGLFLAPHVVSQAVKGAHFTAAFLDELGMRTSPRYDEQRTDLIQSVQFPDREKMIAFCQAIQAASPIDAHVTPQPSSMPGYEDPVIMAAGTFIQGASIELTADGPVRPPYIAYVQGGLTYEHVKLAVMQAADEMLSLETKGTPS
MGSDKIHHHHHHMIYMRLKLSFIYDGDKFQPNKHAVQGFIYNMLRGTEYEDRHNRRGFKFFTFSDVFRDSKGYYSLLIASPDSGFINALYLSLKDRDHVYIGKDEIKLVEVKKFKLKLKRAFQTGSPVVIYKDSRKNEYFKLHEHRDLLFFLQRLKENAEKKFNSFYGDEFHLEGLIFDRVIPKVRKNGKVDVYVKVVKNGVPFPVIGTNWELLEKERIKPEERRFYRFIMDCGLGEKNSLGFGFLNPIKGVKN
MGSDKIHHHHHHMKAKAAFFDIDGTLYREGLISEVFKKLIKYEIIDEEKWYKEVRPEFEKWDNRKGDYDDYLLKMTEIYVDALNGLSKSQVEFIASQVVNQKGERVYTYTRDRIKWHKERGHKIITISGSPIELVRNMAEKYGFDDYRGAEYLLDENDVYTGEVIPMWDSKSKERAVHELEAKYNIDLGESYAYGDTSGDLTMLKMVGNPVCINPTKELVKEILSAAAVKNKIRIIVERKDMIYKISSRCLECDCEFVL
MGSDKIHHHHHHMKALAIAATGMNAQQTNLEVIANNIANINTTGYKRARAEFSDLLYQVDRTQGVPNRSNASLVPEGVSIGLGVKTTAVRNVHTQGELTSTGNSFDMALTGRGWFQIEGADGGTLYTRAGAFNTNATGQLVTVDGANVIPAITVPTDAVEVIVNKTGQVFARIDGQTNLQTLGQLQIVNFANEAGLAPLGDNLFQETTASGPANAGVPGDPGFATIQQGYLEASNVDPVKEITELISAQRAYEMNSKVIQAADDMASVVSKNIR
MGSDKIHHHHHHMKALWILLSLTLWLFGAQNLELIKGQALFLELDKKDFLSLKNNDKNIPTFAHPKNQEKILAIFSLPYKNPPQNTKLIAFYKDKKEEIFIKTLEGNYKSEKLQIENKKIFPPKTIQERITKELKEANAIYSSYTPKALFNGAFNIPLNSFITSDFGKARTFNEKVASYHSGTDFRATTGTPIYAANSGVVKIAKDRYFAGNSVVIDHGFGIYSQYYHLSKIDVKIGQKIKKGELIGLSGATGRVSGPHLHFGILAGGKQVDPLDFVSKFNAIFQ
MGSDKIHHHHHHMKDNFFGREYDIAPAGGETGQAFVATHEDEKFFLKRNSSPFLAALSVENIVPKLVWTRRVENGDVITAQKWVNCHILTREEMVGPRVAKLLAKIHHSENLRHMLEKIENCYFSAHQLLARLKAEMKAKNEANNVMQTAIEYLERNITAVEKADYVVCHGDVNHNNWIISEENELFLVDWDGAMLADAANDLGMILYQYIPREGWDEWLSNYGTTLTSELHRKLKWYTLCQTVMQLTTNQSEEAYERAKQIFQNAIEDDEV
MGSDKIHHHHHHMKFIVKTQMDMEAVAGNYIREVLPNAKVTIAPEGYPGIVIVESEEENALQKILEVPEVEKVYPVLIEVPANLDSIKSAADEIVKYIKEGETFAVRTKKRGKRDFSSVDVNVVLGARIKDLTNAEVNLSYPDKVVQVEIIGEKAYISVIPGKEYTKWKKYPKDKPDCRKLFRKLTIVQMPYWGDYKTARAFGEKIGRAAQAFEVKELIIAPKEKMNAYELMAFIRGVKEGQESRYQIQKEAYPWEVEKVPVTVWDLYQVIRDKRRNRRLIIITDPKGPTLNEVKDKLARDMYYAKEIIIFIGSREGIPIGLFRFADYVVDLAPYMTFATEHGIPATLVALWTIYEEELRRRGEIND
MGSDKIHHHHHHMKFKQDYFDQLSGFYSQVTPQGLPRPQWLAWSEDAAALIGLKQPDDELLQGLAGNQAIPGASYYAQVYSGHQFGGYSPQLGDGRSIILGEAEGPQGYWDVALKGAGMTPYSRHGDGRAVMRSAVREFLVSEALHHLNIPTTRALAVIGSDLPVWRETQETAAITVRLAKSHIRFGHFEFFCHSEQGSKDKLKQLLDFTLSQHYPELSRDQAGYIAWFNRVVADTAKLIAHWQAVGFAHGVMNTDNMSILGDSFDFGPFAFLDTFEEDFICNHSDPNGRYAFGQQPGVGLWNLQRLAQALVPIIASDDLIAALNTYQHHLVQAYLVLMRDKLGIKLVEPAGSERDEADLQLIGGFTLLMEANRLDHTNTWRRFAQLDPNSQHSSLRDDFIDLAGFDTWYQAYQERLGQVSDVAGWQAVRAQVNPKYVLRNYLAQEAIIACEEGNTQPLAELHQLLTRPFDEQPEKEAYAKRPPEWGQGLIMSCSS
MGSDKIHHHHHHMKFMKSLEPLNNHDETAAGDAMRGPSGGGNSASILNEAENILRDYYGGAIESLFIERLVVGVFFTGVKLSNGCGGVAYTPPETIRNASRRILRGSPSAIRGKSADVVISGKIPSPFADVIRLAAINALSVPFFQDGRYDFEKSDDLSDVSHLFTGRRVCMVGAIVPLLKRFKKMGVSEIKVIDRKKDSQIEVELACGEFLSPEQTAETIAQCETAVFTGAAVANGTIEHLLRLVPKEAAVAVVGPTAGFIPDPLFRRNVALVGTAMVTDIAAALDIIAEGGGAYPLFGRCVKKINILNRKRIEQLKPGSKTA
MGSDKIHHHHHHMKFPRKGIPQEEVMRELEKYTSKDLSFSSGKILGSMCTLPHELAKEVFCMYMDRNLGDPGLHPGTKKIEEEVIEMLSDLLHLERGYGHIVSGGTEANILAVRAFRNLADVENPELILPKSAHFSFIKAGEMLGVKLIWADLNPDYTVDVKDVEAKISENTIGIVGIAGTTGLGVVDDIPALSDLARDYGIPLHVDAAFGGFVIPFAKELGYDLPDFDFKLKGVQSITIDPHKMGMAPIPAGGIVFRHKKYLRAISVLAPYLAGGKIWQATITGTRPGASVLAVWALIKHLGFEGYMEIVDRAMKLSRWFAEEIKKTPGAWLVREPMLNIVSFKTKNLRRVERELKSRGWGISAHRGYIRIVSHASCDGGHD
MGSDKIHHHHHHMKFSKLADQVWGEEPDDQVRSFVFMSNLDAQETANTMDVSVSVERIHADLCGNTELASELHYTPDEWDEAQGWVKINYPLIDDTASASLDVVLDATFQPLPGQPFEGEALTLIDALLHHAENVAASNPWKRTTFHTAHMHPPGSNADCDYCLVLQRRGYVKAHEEIQQTIPLPSGDWSAGEFTVVDVEGTAFPSALIPSIVELQHRAALDVPHGNLSVAPAQWDEHRLAQQSERILKTGTKLFTVLFAEGSTVAAMSSIAIPPGSNPDIAEQGLTIVHPDFRGRGLGTAVKLAGLSLLSRCHPEIQRVATSNAVDNHAMLAINRSIGATEIARTTLWEKKL
MGSDKIHHHHHHMKGVLYISFLVCILLGCSDSDGLPDGGKDKTARTELEIVSASIVEGNTQTRADVPFTPGSSIALFCHGQAAETSYTPVNNRKYTLNSGDSKWTAESEATTIYLGSEKADVCGYYPYVEGTVGTADTLYNVRTTIPMDTQDYDPSKELYYVANQEVDAKRYFVEMHFKHAYSRLVLNIGVEDAYPATCSINSVALANDSLFRKAVIDITSGTVGIHPDDTEKQFRGGYNITKDLPYLLDSPDKKYQADLLMIPTKLLPDPFEPTKGLSVIVNVSGFPATVIIPIDDLSDFESGKKYVVSLKLRGIAIKSVTVTTTDWDEKRLNEGVDYEPLPQS
MGSDKIHHHHHHMKHGGYPWKNGKPALDVKDFSVNLNPMGVPKFIEELINEAVKLKVYAYYPPQNLREIKGIIAEIYGVNEDLVGVFNGASEVISILDENFTVPQPNYSEYKFHSYYFAEEHEDEFVFELNPGRILTSNPNNPTGSLIKLDEIEEFLINEKNELILDESFIDISLAESATKLVNEFNNLTIINSFTKSLAIPGLRFGFSIGHKSKELEKRVPIWRINSITYYVISNLNPKEVRSFFVNSKIKVKEIYDKVDGVKKLFKMYKSYAPFFLVEFKIPTSLINDELIRRCKCYIRDASNFLGLRNTHARIALKNEVIELINNINEIISEKES
MGSDKIHHHHHHMKIAVINFSGNVGKTTVSRHLLLPRIQGAELISVESVNADEGKTTALRGGQFAELQEYLQTVNSAIVDIGASNVDQLLFLMQSYRGSHEDFDCFVVPTVPPLKQQQDTIATLIDLSRLGVPPSRLKILFNMTEPGRPVEQTFYLLLAYLAQHPIAVPNTACSLGANEIYGRIRGIKSDLGTLARDTTDYKSLIAKAKDATEKLALAQKLATRRLASGVVLELDACFGALDLHALSAGASPTETSAEA
MGSDKIHHHHHHMKIGITCYPSMGGSGIIATELGIKMAERGHEVHFITSNIPFRIRKPLPNMTFHQVEVNQYAVFQYPPYDITLSTKISDVIQEYDLDILHMHYAVPHAVCGILAKQMSGKNVKIMTTLHGTDITVLGYDHTLQNAIKFGIEQSDIVTSVSHSLAQQTYEIINTKKEIIPIYNFVRENEFPTRHNEELKDCYGISPEEKVLIHVSNFRKVKRIDTVIETFAKVHESIPSKLILLGDGPELIDMRHKARELDVETHVLFLGKQNDVSAFYQLSDLVLLLSEKESFGLTLLEAMKTGVLPIGSHAGGIKEVIRHEETGFIVDIGDSTQAAKYAIKLLSNPELYQKMQSQMLKDIEARFSSDLITDQYENYYRKMLEQGENNNES
MGSDKIHHHHHHMKIIQLEYFLAIVKYNSFTKAAQFLHISQPSLTATIKKMEADLGYDLFTRSTKDIKITEKGIQFYRYASELVQQYRSTMEKMYDLSVTSEPRIKIGTLESTNQWIANLIRKHHSDYPEQQYRLYEIHDKHQSIEQSLNFNIHLAITNEKITHEDIRSIPLYEESYILLAPKETFKNQNWVDVENLPLILPNKNSQVRKHLDDYFNRRNIRPNVVVETDRFESAVGFVHLGLGYAIIPRFYYQSFHTSNLEYKKIRPNLGRKIYINYHKKRKHSEQVHTFVQQCQDYLYGLLEAL
